Experimental data published in patent US20230295324A1.

Tests used:
[1] = target: human OX40 on cells (CHO-K1/hu OX40) (human) (UniProt P43489); experiment: cell-based or functional assay
[2] = target: human OX40 on cells (CHO-K1/hu OX40) (human) (UniProt P43489); experiment: FACS, CHO-K1/hu OX40 cells

Sequence of human OX40 on cells (CHO-K1/hu OX40) (human) (P43489 29-277): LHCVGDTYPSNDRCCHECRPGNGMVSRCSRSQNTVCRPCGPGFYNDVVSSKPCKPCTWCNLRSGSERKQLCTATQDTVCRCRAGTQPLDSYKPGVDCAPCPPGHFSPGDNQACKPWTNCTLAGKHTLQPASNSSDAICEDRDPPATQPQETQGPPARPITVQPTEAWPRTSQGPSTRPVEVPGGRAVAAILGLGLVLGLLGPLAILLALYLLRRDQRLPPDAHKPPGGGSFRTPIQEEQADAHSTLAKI

Maximum fluorescence signal value, HEK293/OX40/NF-kb luciferase reporter [1]: 2530 luminescence
EC50 [2]: 71 nM
Maximum MFI [2]: 6900 MFI
Substance: hIgG1 (antibody)
